Assay results taken from patent US20240360183A1 (SHANGHAI PUYOU BIOMEDICAL, published 2024).

Tests used:
BSA = BSA (UniProt P02769 25-607); assay: cell-based or functional assay
oxidized HSA protein = oxidized HSA protein (UniProt P02768 25-609, oxidized with 8 mM NaClO in the dark for 30 min (which residues are oxidized is not stated)); assay: cell-based or functional assay
oxidized HSA protein, sequence (P02768 25-609): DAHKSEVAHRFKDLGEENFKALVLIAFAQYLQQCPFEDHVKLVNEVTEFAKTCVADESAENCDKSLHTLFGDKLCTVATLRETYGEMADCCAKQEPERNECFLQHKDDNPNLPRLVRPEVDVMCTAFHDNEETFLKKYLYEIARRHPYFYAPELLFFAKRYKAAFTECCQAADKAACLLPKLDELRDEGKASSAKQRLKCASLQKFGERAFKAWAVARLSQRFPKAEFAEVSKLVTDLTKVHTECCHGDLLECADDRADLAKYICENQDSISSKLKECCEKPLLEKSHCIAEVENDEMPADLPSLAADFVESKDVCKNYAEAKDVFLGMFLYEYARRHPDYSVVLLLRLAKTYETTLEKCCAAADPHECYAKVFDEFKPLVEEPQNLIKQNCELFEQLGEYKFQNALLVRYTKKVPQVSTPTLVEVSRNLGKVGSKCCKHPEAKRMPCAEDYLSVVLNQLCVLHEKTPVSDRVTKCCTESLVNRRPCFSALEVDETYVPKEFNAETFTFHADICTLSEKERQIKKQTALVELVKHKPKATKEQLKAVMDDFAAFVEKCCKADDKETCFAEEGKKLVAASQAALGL

BSA, sequence (P02769 25-607 limits assumed): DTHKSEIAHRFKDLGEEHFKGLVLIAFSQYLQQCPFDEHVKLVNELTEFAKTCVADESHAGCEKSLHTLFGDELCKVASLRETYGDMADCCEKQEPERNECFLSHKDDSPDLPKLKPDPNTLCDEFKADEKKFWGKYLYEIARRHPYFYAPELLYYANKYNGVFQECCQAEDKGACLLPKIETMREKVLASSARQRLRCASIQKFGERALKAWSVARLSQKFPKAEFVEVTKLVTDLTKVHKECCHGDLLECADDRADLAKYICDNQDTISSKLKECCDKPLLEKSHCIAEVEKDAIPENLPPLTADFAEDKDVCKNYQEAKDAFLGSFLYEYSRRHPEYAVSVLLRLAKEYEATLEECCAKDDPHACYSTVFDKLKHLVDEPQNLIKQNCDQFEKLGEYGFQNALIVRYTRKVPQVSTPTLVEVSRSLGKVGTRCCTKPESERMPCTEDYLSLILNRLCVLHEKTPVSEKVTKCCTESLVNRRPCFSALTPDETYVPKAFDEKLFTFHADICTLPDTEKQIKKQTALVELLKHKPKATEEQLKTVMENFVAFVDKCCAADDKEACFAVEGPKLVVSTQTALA

Row | Binder | IC50 (µM) for inhibiting thermal aggregation of BSA (BSA) | IC50 (µM) for cellular ROS level induced by DAMP (oxidized HSA protein)
1 | CF-11 (SEQ ID NO: 31) (peptide) SEKKQPVDLGLLEEDDEFEEFPAEDWAGLDEDEDAHVWEDNWDDDNVEDDFSNQLRATVLLMILVVETPYGVYVLHQKGRMVSAFLVV | ~7 µM | –
2 | CF-39 (SEQ ID NO: 52) (peptide) SEKKQPVDLGLLEEDDEFEEFPAEDWAGLDEDESAHVWEDNWDDDNVTSDFSNQLRATVLLMILVCETPYGCYVLHQKGRMCSAFLCC | 10.5 µM | 3.91 µM
3 | CF-38 (SEQ ID NO: 51) (peptide) STKKQPVDLGLLEEDDEFEEFPAESWAGLDEDESAHVWEDNWDDDNVTSDFSNQLRATVLLMILVCETPYGCYVLHQKGRMCSAFLCC | 13.8 µM | 4.12 µM
4 | CF-10 (SEQ ID NO: 30) (peptide) SEKKQPVDLGLLEEDDEFEEFPAEDWAGLDEDEDAHVWEDNWDDDNVEDDFSNQLRATVLLMILVCETPYGCYVLHQKGRMCSAFLCA | 13.8 µM | –
5 | CF-40 (SEQ ID NO: 53) (peptide) SEKKQPVDLGLLEEDDEFEEFPAEDWAGLDEDEDAHVWEDNWDDDNVTSDFSNQLRATVLLMILVCETPYGCYVLHQKGRMCSAFLCC | 12 µM | 5.87 µM
6 | CF-22 (SEQ ID NO: 36) (peptide) SEKKQPVDLGLLEEDDEFEEFPAEDWAGLDEDEDAHVWEDNWDDDNVEDDFSNQLRATVLLMILVVETPYGAYVLHQKGRMASAFLVV | 16.9 µM | –
7 | CF-24 (SEQ ID NO: 38) (peptide) SEKKQPVDLGLLEEDDEFEEFPAEDWAGLDEDEDAHVWEDNWDDDNVEDDFSNQLRATVLLMILVVETPYGAYVLHQKGRMVSAFLVA | 17.6 µM | –
8 | CF-25 (SEQ ID NO: 39) (peptide) SEKKQPVDLGLLEEDDEFEEFPAEDWAGLDEDEDAHVWEDNWDDDNVEDDFSNQLRATVLLMILVVETPYGVYVLHQKGRMASAFLAV | 21.5 µM | –
9 | CF-04 (SEQ ID NO: 29) (peptide) SEKKQPVDLGLLEEDDEFEEFPAEDWAGLDEDEDAHVWEDNWDDDNVEDDFSNQLRATVLLMILVAETPYGAYVLHQKGRMASAFLAA | ~10.2 µM | –
10 | CF-31 (SEQ ID NO: 48) (peptide) SQWAPLDHLESDEWGAFEDEDFNNGDVEELDPEERDDEDLFQKDVLVAKADDEEWDNTVLLMILVCETPYGCYVLHQKGRMCSAFLCC | 12.8 µM | –
11 | CF-30 (SEQ ID NO: 47) (peptide) SDADEFDDDNSVWGWEDDEVEPNDAFQPLGDVRANEELDEKDHKLDEEADLQWEFELTVLLMILVCETPYGCYVLHQKGRMCSAFLCC | 21.3 µM | –
12 | CF-28 (SEQ ID NO: 45) (peptide) SEFEDANKEQGEVPNDDVSDELPKLLDDDEDELRGALFFQWHDWEEAEDNDWDVEDATVLLMILVCETPYGCYVLHQKGRMCSAFLCC | 7.48 µM | –
13 | CF-43 (SEQ ID NO: 54) (peptide) SEKKQPVDLGLLEEDDEFEEFPAEDWAGLDEDEDAHVWEDNWDDDNVTSDFSNQLRATVLLMILVCETPYGCYVLHQKGRMCS | 6.77 µM | 6.13 µM
14 | CF-29 (SEQ ID NO: 46) (peptide) SELDFWDNWKDRQADLPAASDDEDFENDLAEVDHEDPLVDGNEWDGDEVEFELEEQKTVLLMILVCETPYGCYVLHQKGRMCSAFLCC | 13.8 µM | –
